Experimental data taken from patent US11618913B2, “Method for preparing xyloglucan-oligosaccharides” (TECHNISCHE UNIVERSITÄT MÜNCHEN, priority 2017, dated 2023).
“Also recorded” adds a separate entry of the source. Values belong to the molecule of their own block, whether it stands above or below them.

Columns and labels:
Type in all cases: biochemical
[1] = Hydrolysis of 20% (wt/vol) TKP/dTKP, XGOS release by HPAEC-PAD; details: 20% (wt/vol) dTKP/TKP, 60° C.
Description: For XGOS release 20% (wt/vol) 8 g of TKP or dTKP was dissolved in 40 ml demineralized water at 60° C. The enzyme was added at the desired concentrations, 3%, 0.65%, 0.05%, 0.03% or 0.006% (wt/wt TKP) referred to the substrate load. Incubation of the reaction mixture was carried out on a rotary shaker at 125 rpm and 60° C. The hydrolysis process was monitored by taking samples at different time points. The samples were centrifuged and the supernatant boiled for 5 min at 95° C. to denature residual proteins. For analysis, samples of the supernatant were withdrawn, tenfold diluted with double deionized water and measured by HPAEC-PAD.
For the analysis by HPAEC-PAD an ICS 3000 Dionex chromatography system from Thermo Fisher Scientific (Waltham, USA) equipped with a CarboPac™ PA1 column (4×250 mm) and a PA1-precolumn (4×50 mm) was used. The system was set up using PEEK tubing (0.25 mm i.d.), a GM-4 gradient mixer (2 mm), an ED amperometry cell with 0.25 microL channel volume, a pH-Ag/AgCl reference electrode, 0.002″ gasket and disposable gold electrodes. Runs were performed at a column temperature of 30° C. with an injection volume of 25 microL and a flow rate of 1 mL/min. […]
Quantification was performed using a XGOS standard mixture from Megazyme with 0.4 g/L, 0.2 g/L, 0.1 g/L, and 0.05 g/L.

[2] = Specific enzyme activity, reducing sugars by DNSA assay; details: dockerin domain deleted
Description: Enzyme activity: the release of micromol reducing sugars from arabinoxylan per mg of enzyme was determined with the DNSA assay.
Specific enzyme activity was determined by using a model substrate such as barley-beta-glucan (Megazyme). Endoglucanase activity is defined as the generation of reducing sugars from the model substrate. One unit of enzyme activity is defined as the amount of reducing sugars in micromol generated per mg of enzyme in one minute at 60° C. To define the enzyme profile and temperature and pH optimum the endoglucanases (50 ng/reaction) were incubated for 30 minutes at a temperature range from 50 to 80° C. in presence of 1% (wt/vol) barley-beta-glucan solved in citrate buffer with varying pH (range 4.0-8.0) (solution A: 0.2 M citric acid, 0.1 M NaCl; solution B: 0.4 M Na2HPO4, 0.1 M NaCl). Reducing sugars were measured by 3,5-dinitrosalicylic acid (DNSA) method: 50 microL sample were mixed with 75 microL DNSA-solution (10 g/L DNSA, 200 g/L K^+-Na^+-Tartrate, 10 g/L NaOH, 0.5 g/L Na2SO4, 2 g/L Phenol) in microtiter plates, incubated for 5 minutes at 95° C., cooled on ice and the absorption determined at 540 nm. For calibration, glucose solutions between 0 and 2 mg/mL were used.

[3] = Ki determination (end product inhibition) on Azo-Xyloglucan in presence of xyloglucan oligosaccharides; details: inhibition by xyloglucan oligosaccharides; non-competitive inhibition model; substrate 1-20 g/l
Description: To evaluate the suitability of SEQ ID NOs 1-4 for TKP hydrolysis, the Ki value of SEQ ID NO 3 was determined. Enzymatic activity was measured on Azo-Xyloglucan (Megazyme) according to the manufacturer's instruction. Substrate concentrations of 1-20 g/I were chosen and enzymatic activity was measured in the presence of increasing concentrations of xyloglucan oligosaccharides. Mode of Inhibition was assessed using a Lineweaver-Burke plot.

B1: SEQ ID NO 2: wildtype glycoside hydrolase family 5 endoglucanase from Herbivorax saccincola DSM101079 (protein, listed as Herbivorax saccincola)
chain: STAYTGMRDITSLELVNEMRIGWNLGNTLDAIGGETNWGNPKTTKEMIDKVKEMGFNTVRFPVTWGGHVGPAPDYKIDEGWLNRVEEVVNYALSNDMYAIINLHHENSWLVPTYAQEKRSTEQLVKIWEQVATRFKDYGDYLIFETMNEPRVENSPYEWSGGTPENRHVINNFNLAAVNTIRSTGGNNAKRHIMIPAHAASAIDIALNDLVIPNNDDRIIISVHNYSPYFFAMDVNGTASWGSDYDKASLAAELEALYNRFIKNGRAVVIGEFGSINKNNLSDRIRHAEFFAKEARKRGITVIWWDNGYNEGGKAESYALLDRRNLTWYHPEIAEALVRGAGGVPEPTPTPTPEPTPSPGEDILYGDLNGDGIINSIDYNLLNRYILEVIDDLPVENYSKVADLNGDGVINSNDAVLLGRFILEIVDKFPVDK
hydrolysis of TKP to DP7-DP9 after 24 h ([1]; 0.03% (wt/wt) enzyme): Complete hydrolysis; also recorded: completely

B2: SEQ ID NO 4: endoglucanase obtained from SEQ ID NO: 2 by deleting the dockerin domain (protein)
chain: STAYTGMRDITSLELVNEMRIGWNLGNTLDAIGGETNWGNPKTTKEMIDKVKEMGFNTVRFPVTWGGHVGPAPDYKIDEGWLNRVEEVVNYALSNDMYAIINLHHENSWLVPTYAQEKRSTEQLVKIWEQVATRFKDYGDYLIFETMNEPRVENSPYEWSGGTPENRHVINNFNLAAVNTIRSTGGNNAKRHIMIPAHAASAIDIALNDLVIPNNDDRIIISVHNYSPYFFAMDVNGTASWGSDYDKASLAAELEALYNRFIKNGRAVVIGEFGSINKNNLSDRIRHAEFFAKEARKRGITVIWWDNGYNEGGKAESYALLDRRNLTWYHPEIAEALVRGAGGVPEPTPTPTPEPTPSPG
enzyme activity increase in comparison to wildtype SEQ ID NO 2 ([2]; SEQ ID NO 2 activity set to 100%): 7 fold

Ki [3]: 16.8 mM
B3: SEQ ID NO 3: endoglucanase obtained from SEQ ID NO: 1 by deleting the dockerin domain (protein)
chain: AKITENYQFDSRIRLNSIGFIPNHSKKATIAANCSTFYVVKEDGTIVYTGTATSMFDNDTKETVYIADFSSVNEEGTYYLAVPGVGKSVNFKIAMNVYEDAFKTAMLGMYLLRCGTSVSATYNGIHYSHGPCHTNDAYLDYINGQHTKKDSTKGWHDAGDYNKYVVNAGITVGSMFLAWEHFKDQLEPVALEIPEKNNSIPDFLDELKYEIDWILTMQYPDGSGRVAHKVSTRNFGGFIMPENEHDERFFVPWSSAATADFVAMTAMAARIFRPYDPQYAEKCINAAKVSYEFLKNNPANVFANQSGFSTGEYATVSDADDRLWAAAEMWETLGDEEYLRDFENRAAQFSKKIEADFDWDNVANLGMFTYLLSERPGKNPALVQSIKDSLLSTADSIVRTSQNHGYGRTLGTTYYWGCNGTVVRQTMILQVANKISPNNDYVNAALDAISHVFGRNYYNRSYVTGLGINPPMNPHDRRSGADGIWEPWPGYLVGGGWPGPKDWVDIQDSYQTNEIAINWNAALIYALAGFVNYN
modifications: Recombinat polypeptide
degree of hydrolysis after 24 h ([1]; 0.006% (wt/wt) enzyme): over 80%
enzyme activity increase in comparison to SEQ ID NO 1 ([2]; SEQ ID NO 1 activity set to 100%): 4 fold
